Measured values reported in the supplement of paper PMC10567573.

B1: ANKRD40 (parent)
chain: VRIQNPSLRENDFIEIELDRQELT

Variants of: B1
Assay: protein stability index of a GFP-peptide fusion (GPS, HEK-293T) (PSI 1-6); higher = more stable
Settings: c terminus: a fixed tail appended
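Note: lentivirally expressed fusions sorted by FACS into six bins by GFP to DsRed ratio, PSI derived from sequencing read proportions per bin multiplied by bin number.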

Protein stability index, by site and new letter:
F13: E 4.6, G 4.11, L 3.42, K 3.72, V 3.41, Q 4.32, N 4.18, S 4.39, H 4.08, I 2.36, P 4.53, T 3.76, Y 2.42, M 3.21, R 3.43, W 2.44, A 3.81, D 4.61, C 3.15
I14: A 4, C 3.43, T 3.88, D 5.22, L 3, K 4.47, P 4.27, Y 3.73, G 3.87, H 4.66, S 4.42, V 3.1, R 4.34, Q 4.31, M 3.34, F 2.87, E 4.92, W 2.49, N 4.85
I3: E 4.63, R 3.88, N 4.28, D 4.9, V 3.06, T 3.9, K 3.44, M 3.61, A 4.17, P 3.77, S 3.84, W 2.4, Q 3.71, F 2.44, L 2.75, H 4.17, G 4.05, C 3.22, Y 3.11
N5: Q 2.07, M 2.73, Y 1.36, C 2.45, F 2.28, P 2.08, D 2.48, A 1.86, E 3.08, W 2.23, R 2.29, H 1.73, I 2.43, S 1.74, L 3.56, K 2.74, G 1.9, T 2.16
S7: V 2.81, P 3.72, H 2.13, Q 2.82, D 2.91, M 2.01, N 2.79, L 2.09, K 2.81, G 2.26, T 3.04, A 2.76, R 2.39, I 2.56, E 2.8, C 2.33, Y 2.16, W 2.2, F 1.45
E10: K 2.08, I 2, Y 1.51, W 1.91, D 2.31, G 1.85, A 2.27, R 1.84, V 2.05, C 1.73, F 1.92, P 2.5, N 2.15, S 2.51, L 1.53, Q 2.37, H 2.38, T 2.28, M 1.74
L18: F 2.12, E 5.04, P 4.35, H 4.48, C 3.61, D 4.8, M 3.3, N 4.72, K 4.62, A 4.2, I 2.01, G 4.38
Q4: G 2.36, W 1.61, D 2.88, L 1.89, K 2.09, A 2.16, I 2.24, F 1.92, C 2.01, R 2.12, N 2.46, V 2.01, E 2.31, P 2.63, T 2.27, M 2.04, Y 1.98, S 2.29, H 2.11
I16: R 4.75, M 3.49, E 4.8, V 3.49, L 2.65, S 4.47, P 4.67, K 4.69, Q 4.68, Y 3.15, N 5.11, D 5, H 4.59, G 4.55, C 4.09, A 4.19, W 2.89, T 4.44, F 2.83
V1: C 3.51, M 2.79, E 4.77, P 4.53
